Positions count from the first letter of the chain named. Names may count otherwise.
Assays:
2xFLAG-Eps8 = biological target: T1, 2xFLAG-Eps8 (human, UniProt Q12929 1-822); assay: pull-down; anti-Flag magnetic beads with or without the FLAG-Eps8/pIRSp53 complex; 14-3-3θ detected; settings: both partners purified
T1 construct: Eps8, human, UniProt Q12929, full length; also called FLAG-tagged Eps8

pM234FS = biological target: T2, pM234FS (human (from the printed UniProt entry), UniProt Q9UQB8-4 1-521, T340A | T360A | S366A | S519C, fluorescein / rhodamine labels as in pIRSp53FS (C230 and C519)); assay: other fluorescence titration; intramolecular FRET sensor (fluorescein/rhodamine on C230 and C519 of IRSp53); Cdc42, Eps8 and/or 14-3-3θ titrated into the sensor, also back to back; 20 °C; 25 mM Tris-HCl pH 7.5, 150 mM NaCl, 1 mM MgCl2, 5% glycerol, 0.1 mM TCEP; observed Kd (Kobs) from the fits; settings: both partners purified
T2 construct: IRSp53 (BAIAP2), isoform-4, UniProt Q9UQB8-4, full length, FRET sensor (S519C) with T340A/T360A/S366A; also called modified FRET sensor T340A/T360A/S366A; source: serum-starved HEK293T, purified, labelled
T2 sequence (looked up): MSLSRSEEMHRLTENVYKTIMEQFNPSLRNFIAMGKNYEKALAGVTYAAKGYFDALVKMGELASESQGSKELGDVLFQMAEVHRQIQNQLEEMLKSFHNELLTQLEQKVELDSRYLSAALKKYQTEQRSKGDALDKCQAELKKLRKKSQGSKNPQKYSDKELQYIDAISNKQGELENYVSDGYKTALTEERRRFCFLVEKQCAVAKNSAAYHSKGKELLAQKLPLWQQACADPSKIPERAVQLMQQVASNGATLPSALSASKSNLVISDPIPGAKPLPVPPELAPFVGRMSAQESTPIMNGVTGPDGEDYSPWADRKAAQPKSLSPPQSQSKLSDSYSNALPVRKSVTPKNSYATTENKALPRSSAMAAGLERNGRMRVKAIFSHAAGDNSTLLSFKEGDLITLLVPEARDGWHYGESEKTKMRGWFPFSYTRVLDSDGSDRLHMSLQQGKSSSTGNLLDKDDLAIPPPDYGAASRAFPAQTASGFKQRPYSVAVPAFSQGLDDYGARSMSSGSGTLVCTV

pIRSp53FS = biological target: T3, pIRSp53FS (human (from the printed UniProt entry), UniProt Q9UQB8-4 1-521, S519C, natively phosphorylated in HEK293T cells; fluorescein maleimide / rhodamine maleimide on C230 and C519); assay: as above; settings: both partners purified
T3 construct: IRSp53 (BAIAP2), isoform-4, UniProt Q9UQB8-4, full length, S519C; Expressed and purified as m4; also called IRSp53 FRET sensor; phosphorylated IRSp53 (mutant S519C)
T3 sequence (looked up): T2 sequence (looked up) with A340T, A360T, A366S

[1] = biological target: T4, FLAG-Eps8/pIRSp53 complex (human | human (from the printed UniProt …, UniProt Q12929 1-822)); Q9UQB8-4 1-521, natively phosphorylated in HEK293T cells (as m4)); assay: pull-down; anti-Flag magnetic beads with or without the FLAG-Eps8/pIRSp53 complex; 14-3-3θ detected; settings: both partners purified
T4 construct: Eps8, human, UniProt Q12929, full length; IRSp53 (BAIAP2), isoform-4, UniProt Q9UQB8-4, full length; source: formed from purified 2xFLAG-Eps8 (HEK293T) and purified pIRSp53 (serum-starved HEK293T)

[2] = biological target: the molecule itself; assay: crystal structure; 14-3-3θ pre-incubated with singly (2.5:1) or doubly (0.6:1) phosphorylated IRSp53 peptides; hanging drop, 18 °C; resolution 2.0 to 2.9 Å

T1 sequence (Q12929 whole entry): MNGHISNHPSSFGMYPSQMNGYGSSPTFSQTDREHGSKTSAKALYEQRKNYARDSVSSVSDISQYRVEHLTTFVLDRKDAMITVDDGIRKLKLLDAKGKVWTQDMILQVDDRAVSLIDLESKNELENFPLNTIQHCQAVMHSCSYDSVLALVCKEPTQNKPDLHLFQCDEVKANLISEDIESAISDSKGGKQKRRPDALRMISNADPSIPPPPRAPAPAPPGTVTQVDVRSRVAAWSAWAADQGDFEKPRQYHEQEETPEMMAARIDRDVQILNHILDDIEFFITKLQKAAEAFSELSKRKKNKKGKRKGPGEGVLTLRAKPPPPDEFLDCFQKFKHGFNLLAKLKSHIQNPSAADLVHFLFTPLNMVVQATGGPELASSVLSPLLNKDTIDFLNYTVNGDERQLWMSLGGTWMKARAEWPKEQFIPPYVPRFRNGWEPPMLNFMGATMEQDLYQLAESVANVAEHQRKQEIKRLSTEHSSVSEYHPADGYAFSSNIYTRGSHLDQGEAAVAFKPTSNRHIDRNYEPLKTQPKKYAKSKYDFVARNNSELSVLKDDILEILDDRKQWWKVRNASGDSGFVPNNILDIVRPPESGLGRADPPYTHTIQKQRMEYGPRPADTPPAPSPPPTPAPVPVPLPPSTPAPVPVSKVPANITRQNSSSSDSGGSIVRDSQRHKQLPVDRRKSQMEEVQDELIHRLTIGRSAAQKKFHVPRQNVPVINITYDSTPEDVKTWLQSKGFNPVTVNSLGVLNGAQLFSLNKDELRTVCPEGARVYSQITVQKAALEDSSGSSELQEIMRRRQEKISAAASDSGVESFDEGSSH
T4 sequence (Q12929 whole entry, canonical isoform, one chain of several): as the sequence (Q12929 whole entry) above

B1: IRSp53-FLAG (wild type), natively phosphorylated (natural protein, human (from the printed UniProt entry), UniProt Q9UQB8-4 1-521, looked up)
chain: T2 sequence (looked up) with A340T, A360T, A366S, C519S
modifications: phosphorylated in HEK293T cells at S325, T340, T360, S366 and a residue within 452SSST455, most likely S454 (mass spectrometry of the purified 14-3-3-binding-competent fraction)
notes: also called pIRSp53; WT IRSp53-FLAG; source: HEK293T, transfected, in lysate; not shown: FLAG, C-terminal, kept
Q: Does B1 bind (2xFLAG-Eps8)?
A: binds

B2: GMPPNP-Cdc42 (constitutively active mutant G12V) (domain or fragment)
chain: not shown
notes: Cdc42, human, residues 1-178, G12V; Loaded with GMPPNP; also called GNPPNP-Cdc42 (G12V mutant); source: E. coli BL21(DE3), purified
Q: Does B2 bind (pM234FS)?
A: binds

Q: What about the Kd (pIRSp53FS) of the same binder?
A: 19.1 µM

B3: 14-3-3θ (natural protein, human)
chain: MEKTELIQKAKLAEQAERYDDMATCMKAVTEQGAELSNEERNLLSVAYKNVVGGRRSAWRVISSIEQKTDTSDKKLQLIKDYREKVESELRSICTTVLELLDKYLIANATNPESKVFYLKMKGDYFRYLAEVACGDDRKQTIDNSQGAYQEAFDISKKEMQPTHPIRLGLALNFSVFYYEILNNPELACTLAKTAFDEAIAELDTLNEDSYKDSTLIMQLLRDNLTLWTSDSAGEECDAAEGAEN
notes: 14-3-3θ, human, UniProt P27348; also called 14-3-3 theta; 14-3-3τ
Q: Does B3 bind [1]?
A: binds

Q: Does B3 bind [2]?
A: binds

Q: What about the Kd (pIRSp53FS) of the same binder?
A: 0.079 µM

From publication PMC6351565, “Mechanism of IRSp53 inhibition by 14-3-3” (Nature Communications, 2019)
